From patent US20060141532A1

Target: HLA-A2 Ag on A375SM melanoma cells (human)
Test: cell-based or functional assay

**Q.** Which inhibition of lysis of A375SM melanoma cells by I-100-CTL and I-102-CTL (51Cr release assay) does the source give for anti-HLA-A2 mAb MA2.1 (antibody) here?
**A.** > 50%
